# Experimental data published in US20230002480A1.
# How the values were obtained:
# Experiment in all cases: cell-based or functional assay
# [1] = target: HIV-1 Env of pseudovirus T255-34 (HIV-1)
# [2] = target: HIV-1 Env of pseudovirus 89-F1_2_25 (HIV-1)
# [3] = target: HIV-1 Env of pseudovirus CNE52 (HIV-1)
# [4] = target: HIV-1 Env of pseudovirus BJOX015000.11.5 (HIV-1)
# [5] = target: HIV-1 Env of pseudovirus Q461.e2 (HIV-1)
# [6] = target: HIV-1 Env of pseudovirus Du172.17 (HIV-1)
# [7] = target: HIV-1 Env of pseudovirus CNE8 (HIV-1)
# [8] = target: HIV-1 Env of pseudovirus ZM247v1(Rev-) (HIV-1)
# [9] = target: HIV-1 Env of pseudovirus 6535.3 (HIV-1)
# [10] = target: HIV-1 Env of pseudovirus CNE17 (HIV-1)
# [11] = target: HIV-1 Env of pseudovirus 1054_07_TC4_1499 (HIV-1)
# [12] = target: HIV-1 Env of pseudovirus 62357_14_D3_4589 (HIV-1)
# [13] = target: HIV-1 Env of pseudovirus CNE20 (HIV-1)
# [14] = target: HIV-1 Env of pseudovirus Ce1086_B2 (HIV-1)
# [15] = target: HIV-1 Env of pseudovirus AC10.0.29 (HIV-1)
# [16] = target: HIV-1 Env of pseudovirus CAP210.2.00.E8 (HIV-1)
# [17] = target: HIV-1 Env of pseudovirus CNE19 (HIV-1)
# [18] = target: HIV-1 Env of pseudovirus 6480.v4.c25 (HIV-1)
# [19] = target: HIV-1 Env of pseudovirus BJOX025000.01.1 (HIV-1)
# [20] = target: HIV-1 Env of pseudovirus 6244_13_B5_4576 (HIV-1)
# [21] = target: HIV-1 Env of pseudovirus 6540.v4.c1 (HIV-1)
# [22] = target: HIV-1 Env of pseudovirus P0402_c2_11 (HIV-1)
# [23] = target: HIV-1 Env of pseudovirus HIV-16845-2.22 (HIV-1)
# [24] = target: HIV-1 Env of pseudovirus 6041.v3.c23 (HIV-1)
# [25] = target: HIV-1 Env of pseudovirus C4118.c09 (HIV-1)
# [26] = target: HIV-1 Env of pseudovirus CNE53 (HIV-1)
# [27] = target: HIV-1 Env of pseudovirus CNE58 (HIV-1)
# [28] = target: HIV-1 Env of pseudovirus Q842.d12 (HIV-1)
# [29] = target: HIV-1 Env of pseudovirus BF1266.431a (HIV-1)
# [30] = target: HIV-1 Env of pseudovirus WEAU_d15_410_787 (HIV-1)
# [31] = target: HIV-1 Env of pseudovirus TRO.11 (HIV-1)
# [32] = target: HIV-1 Env of pseudovirus ZM135M.PL10a (HIV-1)
# [33] = target: HIV-1 Env of pseudovirus 3301.v1.c24 (HIV-1)
# [34] = target: HIV-1 Env of pseudovirus 0260.v5.c36 (HIV-1)
# [35] = target: HIV-1 Env of pseudovirus 249M B10 (HIV-1)
# [36] = target: HIV-1 Env of pseudovirus CAP45.2.00.G3 (HIV-1)
# [37] = target: HIV-1 Env of pseudovirus CNE30 (HIV-1)
substance,measurement,setting,value
PGT145 (antibody),"IC50, titer in TZM.bl cells",[1],> 50 µg/mL
same,"IC80, titer in TZM.bl cells",[1],> 50 µg/mL
same,"IC50, titer in TZM.bl cells",[2],0.8 µg/mL
same,"IC80, titer in TZM.bl cells",[2],20 µg/mL
same,IC50,[3],0.02 µg/mL
same,IC80,[3],0.091 µg/mL
same,"IC50, titer in TZM.bl cells",[4],> 50 µg/mL
same,"IC80, titer in TZM.bl cells",[4],> 50 µg/mL
same,IC50,[5],7.8 µg/mL
same,IC80,[5],> 50 µg/mL
same,IC50,[6],> 50 µg/mL
same,IC80,[6],> 50 µg/mL
same,"IC50, titer in TZM.bl cells",[7],0.272 µg/mL
same,"IC80, titer in TZM.bl cells",[7],2.24 µg/mL
same,IC50,[8],7.19 µg/mL
same,IC80,[8],> 50 µg/mL
same,IC50,[9],> 50 µg/mL
same,IC80,[9],> 50 µg/mL
same,IC50,[10],0.091 µg/mL
same,IC80,[10],1.16 µg/mL
same,IC50,[11],> 50 µg/mL
same,IC80,[11],> 50 µg/mL
same,IC50,[12],> 50 µg/mL
same,IC80,[12],> 50 µg/mL
same,IC50,[13],0.318 µg/mL
same,IC80,[13],6.97 µg/mL
same,IC50,[14],> 50 µg/mL
same,IC80,[14],> 50 µg/mL
same,IC50,[15],0.01 µg/mL
same,IC80,[15],0.025 µg/mL
same,IC50,[16],37.8 µg/mL
same,IC80,[16],> 50 µg/mL
same,IC50,[17],0.103 µg/mL
same,IC80,[17],1.13 µg/mL
same,"IC50, titer in TZM.bl cells",[18],> 50 µg/mL
same,"IC80, titer in TZM.bl cells",[18],> 50 µg/mL
same,"IC50, titer in TZM.bl cells",[19],6.63 µg/mL
same,"IC80, titer in TZM.bl cells",[19],> 50 µg/mL
same,IC50,[20],7.27 µg/mL
same,IC80,[20],44.5 µg/mL
same,"IC50, titer in TZM.bl cells",[21],0.08 µg/mL
same,"IC80, titer in TZM.bl cells",[21],5.09 µg/mL
same,"IC50, titer in TZM.bl cells",[22],0.009 µg/mL
same,"IC80, titer in TZM.bl cells",[22],0.038 µg/mL
same,IC50,[23],> 50 µg/mL
same,IC80,[23],> 50 µg/mL
same,"IC50, titer in TZM.bl cells",[24],0.964 µg/mL
same,"IC80, titer in TZM.bl cells",[24],> 50 µg/mL
same,"IC50, titer in TZM.bl cells",[25],< 0.001 µg/mL
same,"IC80, titer in TZM.bl cells",[25],0.004 µg/mL
same,IC50,[26],0.006 µg/mL
same,IC80,[26],0.084 µg/mL
same,IC50,[27],0.183 µg/mL
same,IC80,[27],7.41 µg/mL
same,IC50,[28],0.032 µg/mL
same,IC80,[28],0.552 µg/mL
same,IC50,[29],1.34 µg/mL
same,IC80,[29],18.5 µg/mL
same,IC50,[30],1.95 µg/mL
same,IC80,[30],31.5 µg/mL
same,IC50,[31],0.04 µg/mL
same,IC80,[31],0.118 µg/mL
same,IC50,[32],> 50 µg/mL
same,IC80,[32],> 50 µg/mL
same,"IC50, titer in TZM.bl cells",[33],0.219 µg/mL
same,"IC80, titer in TZM.bl cells",[33],4.22 µg/mL
same,IC50,[34],> 50 µg/mL
same,IC80,[34],> 50 µg/mL
same,IC50,[35],0.947 µg/mL
same,IC80,[35],41.3 µg/mL
same,IC50,[36],0.001 µg/mL
same,IC80,[36],0.007 µg/mL
same,IC50,[37],> 50 µg/mL
same,IC80,[37],> 50 µg/mL
PGT121 (antibody),IC50,[1],18.7 µg/mL
same,IC80,[1],> 50 µg/mL
same,IC50,[2],> 50 µg/mL
same,IC80,[2],> 50 µg/mL
same,IC50,[3],2.04 µg/mL
same,IC80,[3],18.9 µg/mL
same,IC50,[4],> 50 µg/mL
same,IC80,[4],> 50 µg/mL
same,IC50,[5],> 50 µg/mL
same,IC80,[5],> 50 µg/mL
same,IC50,[6],0.033 µg/mL
same,IC80,[6],0.257 µg/mL
same,IC50,[7],> 50 µg/mL
same,IC80,[7],> 50 µg/mL
same,IC50,[8],0.028 µg/mL
same,IC80,[8],0.082 µg/mL
same,IC50,[9],0.002 µg/mL
same,IC80,[9],0.008 µg/mL
same,IC50,[10],7.6 µg/mL
same,IC80,[10],> 50 µg/mL
same,IC50,[11],0.064 µg/mL
same,IC80,[11],0.304 µg/mL
same,IC50,[12],2.6 µg/mL
same,IC80,[12],> 50 µg/mL
same,IC50,[13],< 0.001 µg/mL
same,IC80,[13],0.002 µg/mL
same,IC50,[14],< 0.001 µg/mL
same,IC80,[14],< 0.001 µg/mL
same,IC50,[15],0.024 µg/mL
same,IC80,[15],0.073 µg/mL
same,IC50,[16],26.3 µg/mL
same,IC80,[16],> 50 µg/mL
same,IC50,[17],0.008 µg/mL
same,IC80,[17],0.105 µg/mL
same,IC50,[18],< 0.001 µg/mL
same,IC80,[18],0.004 µg/mL
same,IC50,[19],> 50 µg/mL
same,IC80,[19],> 50 µg/mL
same,IC50,[20],0.061 µg/mL
same,IC80,[20],0.347 µg/mL
same,IC50,[21],> 50 µg/mL
same,IC80,[21],> 50 µg/mL
same,IC50,[22],0.005 µg/mL
same,IC50,[23],3.97 µg/mL
same,IC80,[23],44.6 µg/mL
same,IC50,[24],> 50 µg/mL
same,IC80,[24],> 50 µg/mL
same,IC50,[25],> 50 µg/mL
same,IC80,[25],> 50 µg/mL
same,IC50,[26],0.007 µg/mL
same,IC80,[26],0.024 µg/mL
same,IC50,[27],> 50 µg/mL
same,IC80,[27],> 50 µg/mL
same,IC50,[28],0.005 µg/mL
same,IC50,[29],> 50 µg/mL
same,IC80,[29],> 50 µg/mL
same,IC50,[30],0.026 µg/mL
same,IC80,[30],0.077 µg/mL
same,IC50,[31],0.005 µg/mL
same,IC80,[31],0.025 µg/mL
same,IC50,[32],0.716 µg/mL
same,IC80,[32],5.25 µg/mL
same,IC50,[33],0.008 µg/mL
same,IC80,[33],0.019 µg/mL
same,IC50,[34],0.053 µg/mL
same,IC80,[34],0.197 µg/mL
same,IC50,[35],> 50 µg/mL
same,IC80,[35],> 50 µg/mL
same,IC50,[36],1.63 µg/mL
same,IC80,[36],> 50 µg/mL
same,IC50,[37],0.078 µg/mL
same,IC80,[37],0.291 µg/mL
